From article doi:10.1101/2020.06.24.168591

Target: E108D mutant of Thermoplasmatales archaeon SG8-52-1 heliorhodopsin (TaHeR) (Thermoplasmatales archaeon SG8-52-1)
Test: crystal structure

E108D mutant of Thermoplasmatales archaeon SG8-52-1 heliorhodopsin (TaHeR) (natural protein)
stoichiometry N: 2
